Reference: a protein production outcome set (Wang et al. 2014)

Assay: label from the status in PepcDB records

Sequence | protein production
MSCVHYKFSSKLNYDTVTFDGLHISLCDLKKQIMGREKLKAADCDLQITNAQTKEEYTDDNALIPKNSSVIVRRIPIGGVKSTSKTYVISRTEPAMATTKAIDDSSASISLAQLTKTANLAEANASEEDKIKAMMSQSGHEYDPINYMKKPLGPPPPSYTCFRCGKPGHYIKNCPTNGDKNFESGPRIKKSTGIPRSFMMEVKDPNMKGAMLTNTGKYAIPTIDAGRLLFHKLGTMGHKQIDTYFWNRGDVYGATATQITHLREAYAIGKKEKPPFLPEEPSSSSEEDDPIPDELLCLICKDIMTDAVVIPCCGNSYCDECIRTALLESDEHTCPTCHQNDVSPDALIANKFLRQAVNNFKNETGYTKRLRKQLPPPPPPIPPPRPLIQRNLQPLMRSPISRQQDPLMIPVTSSSTHPAPSISSLTSNQSSLAPPVSGNPSSAPAPVPDITATVSISVHSEKSDGPFRDSDNKILPAAALASEHSKGTSSIAITALMEEKGYQVPVLGTPSLLGQSLLHGQLIPTTGPVRINTARPGGGRPGWEHSNKLGYLVSPPQQIRRGERSCYRSINRGRHHSERSQRTQGPSLPATPVFVPVPPPPLYPPPPHTLPLPPGVPPPQFSPQFPPGQPPPAGYSVPPPGFPPAPANLSTPWVSSGVQTAHSNTIPTTQAPPLSREEFYREQRRLKEEEKKKSKLDEFTNDFAKELMEYKKIQKERRRSFSRSKSPYSGSSYSRSSYTYSKSRSGSTRSRSYSRSFSRSHSRSYSRSPPYPRRGRGKSRNYRSRSRSHGYHRSRSRSPPYRRYHSRSRSPQAFRGQSPNKRNVPQGETEREYFNRYREVPPPYDMKAYYGRSVDFRDPFEKERYREWERKYREWYEKYYKGYAAGAQPRPSANRENFSPERFLPLNIRNSPFTRGRREDYVGGQSHRSRNIGSNYPEKLSARDGHNQKDNTKSKEKESENAPGDGKGNKHKKHRKRRKGEESEGFLNPELLETSRKSREPTGVEENKTDSLFVLPSRDDATPVRDEPMDAESITFKSVSEKDKRERDKPKAKGDKTKRKNDGSAVSKKENIVKPAKGPQEKVDGERERSPRSEPPIKKAKEETPKTDNTKSSSSSQKDEKITGTPRKAHSKSAKEHQETKPVKEEKVKKDYSKDVKSEKLTTKEEKAKKPNEKNKPLDNKGEKKKKK | not failed
MSCWKTINLVKDYGGMRIVLTAVSLMILFFIPEYLAMQLIHPQTVQRGDHALLFAGLLVAAIIAHKILHILPMISKKKLEKKIYWLKMRTWREIPKNMMLVSLLCPFLVITPVLFYAGAAMPSFAHYFCIISSIHFGYCLPDFLFAWKLIKAPKNCFVDQEADDFDILIQK | failed
MSDAFTDVAKMKKIKEEIKAHEGQVVEMTLENGRKRQKNRLGKLIEVYPSLFIVEFGDVEGDKQVNVYVESFTYSDILTEKNLIHYLD | not failed
MSDAPTSPRFSAATSTRLLDHAQLEALCADYDGFLLDLWGVVMDGTEAFPGALAWLARRHAEGRPVWFLSNSSSSVAEMSAGLERLGIRRDWFAGITTSGQLTIDALLQTAEYRRGGIYLAGVGLAQQSWPAEIRERFVEDIAQAALIVGVGSFPQDELEQRFAPLRGATDLPFLCANPDRVVVSGGRTVYGAGMLAELFSEEGGQVSWYGKPDPAAFRIAQRQLEARGARHILFVGDSLVTDVPGALAARIDTLWLGATGIHREALGAEFNGALDEERVRSLLHGYPIRPHFAAPGLV | failed
MSDDLALTALAASSFSLPELREGQLAGMTALVERRDVLAVMPTGYGKSATYQVAALYLHNKTGRPAVVVSPLIALQEDQLDGLAEHLGEGAGVAINSSRSDAEVEAAWQAVESGQAAFLFLAPEQLSKRETVERIANLDITMFVVDEAHCVSSWGHDFRPDYLELGHVREHLGNPPVIALTATASPPVRDEIVKRLGMTEPVVLVRGFDRPNISLDVVRHQEDKGKRKAVMEQVVALAKAEGLGLLYAATRKATEKYAAKLTEHGLRAEAYHAGRADSDRESIHERFLDDQLDVVVATTAFGMGIDKPNVRFVVHADIPESLDSYYQEIGRAGRDGEPATAILHYRAEDLGLRKFFATHSPDAEALTAVLKVIKNAGAPVPKTALVELTGFPARRVTALVNQLEEAGAVTTGKRGTRLSSKAKLTTLVDRAVELAEARQRVDQSRLTMMRAYAETDACRRQFLLGYFGEDLPEPCGNCDACAEIHDDAGSGSAGHLTSTAENLFPLQSTVIHKEWGPGLVMRHEDDVMTVLFEQEGYKTLSRAAVVEHELLKPA | failed
MSDFEKQLWKAADKLRKNIDAAEYKHIVLGLIFLRYISDAFEELYEKLQQGEGEYAGADPEDRDEYKAENVFFVPAISRWPYLQSEAKKPDIGKSVDNAMDAIEKENPLLRGVLPKVFARGNLDPTNLGGLIDLVSNVALGDAKSRSADVLGHVFEYFLGEFALAEGKKGGQFYTPRSVVELLVEMLEPYNGRVFDPCCGSGGMFVQSEKFVADHQGKINDISIYGQESNQTTWRLAKMNLAIRSIDSSQVKWNNEGSFLNDVHKDLKADYVIANPPFNDSDWSGDLLRKDGRWKYGVPPAGNANYAWIQHFLYHLGPSGQAGFVLAKGSLTSKSSGEGDIRKELVEARLVDCIVNLPPKLFLNTQIPASLWFLSRNKANGKHRNRTDEILFIDARNMGHLINRRTREFSPEDIQQIAGTYHKWRNPEGNYEDVKGFCNSAPIERVRELGYVLTPGRYVGLPDDEDNFDFNERFSALKAEFEEQLKEEERLNLRIAENLKKVKPA | failed
MSDFNKYCEEAAREALPDSEDEEDIGDEDTCSAQDLAAEFQLKYKPQDEVSVSLQREYVLSLAADQGFSRMAAGLSNSAVHIYNLDSGAGKLENFSYLPPTDSPQSVSICGVRFLDEGPHNILVGTTDGYVRLYDLRLRGEQARFKYTQHPNVPPVPKSLSCFDRNANGRIICCGTEQFHSNAFLVFFDVRERQQMGVYFESHEDDITSLRFHAQNPDLLATGSVDGLVNVFDVKEPDEDEALLNTFNTESSVARLAWHRNVYDKDIISCVTTTGDFKSYECEEGDEVASFERPDVTAAIRRKKAANFNLINAHNQEDGGVFLLAGTNFNKGEILRSVSVTSKNSLQPLANFQGNKQIVRDSLFDSKRSLLFTGGESGIVTVWAQDASGTAFSSEKLKARKEKKSRKQAPY | failed
MSDHHHHDHHLGCACCALPLLELLDQPQLSQDEWQRELETLAPELGKRFPRPGQQESAIFHGGSIRPLAAAGPSRVAALGMSGGRIVAMGDLDDVRAAMASHRPFREIDLDGRALLPGLVDPHMHIMPSALFKSWISLSAFGVTRNSQDGEDAQVLNPDYSYQQIKDKLLPAIAQAKQPGAASNWVLGFGVDPSLMREWVDIKASSLDELAPPDDNIAVFLLNASGHIGYANTAAMKEAGLTPEQIKKCEGVLTEANIIQIMGKIPKRILAKDLLRNLLMVLHDAASRGNTMLFDAGLGSSLKEAEVRLLQLIAKLGLSPVRIAGALYSNELTQMRQWMKLYQPDLNSQDDSHFSIKALKLVADGSNQGLTGFQFSPYKNVAQHPVPDVPPIGLFNFKIPDAPSSENENRLPDSLASYLHLALGSGWPVLVHSNGEQAMELVLDSYQEAISATRADARHLRLRVEHASLLTDATLSRMASMGLSPSFLIGHVGYWGYALQNDILGEARTELLDRCKSARDAGIRISLHSDHFVSPLGSLRMAEQAIYRKMEGAPQEEKPVLNKEECLSHEQALAAVTLDAAWQCHMDHLVGSLEPGKLADMVILGQDPLDDGVTDLRHINVHETWRGGARVYANPNTH | failed
MSDINKPFLVVIVGPTASGKTELSIELAKQINGEIISGDSMQVYKQMDIGTAKVTNEEMDGIPHYMIDILNPDDSFSVYDFKLRAQALIEDITSRGKIPIIAGGTGLYIQSLIYDYPFDDETVSKEVEQKTQLQLQKLEPLTNQEVHDYLATFDPQSAKDIHPNNRKRVLRAIEYYLNTKKLISSRKKVQQFTENYDTLLIGIEMSRKTLYSRINKRVDIMLGHGLFNEVKNLVEQGYESTQSMQAIGYKELVPVVNGELSIDQAVETLKQHSRQYAKRQLTWFKNKLTVQWFNRETMSLQMMLDEITTQINKRSSKHDCKPQHPRSSTREL | failed
MSDINTVNLINQMKTLAAQAEGIKPDSGLNHASFSSVFQQALNQVNELSQTADSLKTRFEIGDPNVSLGEVMIASQKSNLGFEATLRVRNKLVQAYQDIMNMPV | failed
MSDKLLIMFHGVGSNGVDLLPIAQYWQRQIDGLDIAYPNAPFPFMHSHEVFEWFSLTGITPQNRYERIVDAREYFDQTILRTLQEHKFQGDLSQLIFCGFSQGTIMCLDAIVSGRWSVAGCIGFSGRLASPVESDVRTTKISLMHGEADAVIAVEEGREAYHTLNEAGFDVQLETYTGLGHSVNELELKKGLEFLQAL | failed
